SMILES strings stand for the structures.

This is an account of results in patent US20230414796A1, “COMBINATION OF PARA-AMINOHIPPURIC ACID (PAH) AND RADIOLABELED COMPLEXES FOR TREATING CANCER” (priority 2020, published 2023).

Data set [1] can be described thus: Example 1: body weight of AR42J xenograft CD1 nude mice. As to conditions: mouse, in vivo. On the procedure: Body weight and tumor volume were evaluated every two to three days for a period of 57 days after treatment (or until the tumor size limit was reached). The tumor volume was determined by measuring the length, the width and the depth of the tumor with a digital caliper. Tumor volume was calculated by using the following formula: […]
The mice were monitored until the individual tumor size reached 1500 mm^3. When this experimental endpoint was reached or after a 57 days period following treatment, mice were euthanized. Mean tumor volume and body weight of AR42J xenograft CD1 nude mice were calculated for each treatment group throughout the duration of the study.

Data set [2] is described as follows: Example 2: body weight of AR42J xenograft SWISS mice. On the set-up: species or system SWISS nude mice. As to conditions: mouse, in vivo. On the procedure:
10 min prior to dosing of ^177Lu-DOTATOC, mice of groups 1 and 2 were injected intraperitoneally with 50 μL saline or PAH, respectively.
Body weight and tumor volume were evaluated every two to three days for a period of 46 days after treatment (or until the tumor size limit was reached). The tumor volume was determined by measuring the length, the width and the depth of the tumor with a digital caliper. Tumor volume was calculated by using the following formula: […]
The mice were monitored until the individual tumor size reached 1500 mm^3. When this experimental endpoint was reached or after a 46 days period following treatment, mice were euthanized. Mean tumor volume and body weight of AR42J xenograft SWISS mice were calculated for each treatment group throughout the duration of the study.

With `C[C@@H](O)[C@@H]1NC(=O)[C@H](CCCCN)NC(=O)[C@@H](Cc2c[nH]c3ccccc23)NC(=O)[C@H](Cc2ccc(O)cc2)NC(=O)[C@@H](NC(=O)[C@@H](Cc2ccccc2)NC(=O)CN2CCN(CC(=O)O)CCN(CC(=O)O)CCN(CC(=O)O)CC2)CSSC[C@@H](C(=O)N[C@H](CO)[C@@H](C)O)NC1=O` [^177Lu-DOTATOC, ^177Lu-DOTA-D-Phe-cyclo(Cys-Tyr-D-Trp-Lys-Thr-Cys]-Thr(ol), metal not drawn], in data set [1], the “average weight change compared to untreated tumor-bearing control mice” value is “increased similarly” and the “physical appearance throughout the study period” value is recorded as “maintained a healthy physical appearance”. Also, in data set [2], the “average weight increase compared to tumor-bearing control mice” value is on record as “increased slightly more slowly”, the “physical appearance throughout the study period” value is recorded as “maintained a healthy physical appearance” and the “radiotoxicity (suggested by body weight)” value is “low radiotoxicity”.
